Here are results for two molecules from patent publication US20220186225, “COMPOUNDS FOR DETECTING AND TREATING MYCOPLASMA HYOPNEUMONIAE” (AEROVIRUS TECHNOLOGIES INC., published 2022).

This data set concerns the target T1, P97 cilium adhesin peptidic complex (F2P97 / R1-containing section, SELEX target) (Mycoplasma hyopneumoniae).
T1 chain: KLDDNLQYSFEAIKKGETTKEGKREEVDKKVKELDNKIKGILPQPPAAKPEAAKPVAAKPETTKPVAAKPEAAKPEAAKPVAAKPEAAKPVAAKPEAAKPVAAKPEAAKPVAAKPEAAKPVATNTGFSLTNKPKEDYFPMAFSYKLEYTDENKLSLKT
Put plainly: ELISA; reverse screening on streptavidin plate, 37 C. The settings on record: tags: His tag (Ni-NTA captured); label: biotin in reverse screening. As to the method:
Reverse Screening of Aptamer—Selected ssDNA molecules from each individual clone were biotinylated using the B-T3 which is same sequence with 5′ primer (T3 primer), and Klenow fragment (2 unit/ml). To prepare single stranded biotin conjugated APT3Cooc10 aptamer for the reverse screening. T3 Primer was Biotin labelled. A 96-well flat bottom ELISA plate was prepared by coating each well with 100 μl of streptavidin (100 μg/ml) diluted in 0.1 M NaHCO₃ following by a 37° C. overnight incubation. Following several washings with PBS, wells were blocked with 200 μl of PBS containing 1% BSA for 2 hours at room temperature and subsequent washing three times with PBS-T (10 mM PBS containing 0.05% (v/v) Tween-20). Thereafter, 100 μl of 2.5 pmole/100 μl biotinylated-ssDNA were added to the wells and incubated at 37° C. for 2 hours followed by washing four times with PBS-T. T3 primer was used as negative control. Following washing, 100 μl of fluid containing 2 μg histidine labelled P97 peptidic complex were added to the indicated wells and incubated at 37° C. for 2 hours. […]
Enzyme-Linked Immunosorbent Assay (ELISA)—The ELISA tests were carried-out following all the guidelines provided with the DAKO kit. Reaction was terminated with 100 μl of 0.5M H₂SO₄, and the plates were read with a multichannel spectrophotometer at 450 nm.
A general note: ELISA stands for enzyme-linked immunosorbent assay.

B1: APT3Histo1 (ssDNA)
DNA: GCCTGTTGTGAGCCTCCTAACCGCACGTGGGTATTCTAAGTGCGGTAGCTCAATGGTGAGCGATGAGCATCATGCTTATTCTTGTCTCCC
Regarding B1, the binding result was “binds”.

B2: APT3Cooc3 (ssDNA)
DNA: GCCTGTTGTGAGCCTCCTAACTAGCTCGTAGAAAAAAAATATAGCGTGTGCTGGGACTGCTCGGGATTGCGGACACATGCTTATTCTTGTCTCCC
For the molecule B2, the binding result is “binds”.
